Values belong to the substance of their own block, whether it stands above or below them.
How the values were obtained:
[1] = biological target: TSH receptor (TSHR), full length human, coated on tubes (human) (UniProt P16473); experiment: inhibition of 125I-K1-18 IgG binding to TSHR coated tubes; competitor 125I-K1-18 IgG; sample at 0.01 µg/mL in assay buffer
[2] = biological target: TSHR with Glu157 mutated to Ala, expressed in CHO cells (human) (UniProt P16473); experiment: cell-based or functional assay
[3] = biological target: TSHR with His105 mutated to Ala (expressed in CHO cells) (human) (UniProt P16473); experiment: cell-based or functional assay
[4] = biological target: TSHR with Ile60 mutated to Ala, expressed in CHO cells (human) (UniProt P16473); experiment: cell-based or functional assay
[5] = biological target: TSHR with Lys183 mutated to Asp expressed in CHO cells (human) (UniProt P16473); experiment: cell-based or functional assay
[6] = biological target: TSHR with Lys250 mutated to Ala (expressed in CHO cells) (human) (UniProt P16473); experiment: cell-based or functional assay
[7] = biological target: TSHR with Phe130 mutated to Ala, expressed in CHO cells (human) (UniProt P16473); experiment: cell-based or functional assay
[8] = biological target: TSHR with Thr257 mutated to Ala (human) (UniProt P16473); experiment: cell-based or functional assay
[9] = biological target: TSHR with Trp258 mutated to Ala (human) (UniProt P16473); experiment: cell-based or functional assay
[10] = biological target: TSHR with Tyr185 mutated to Ala, expressed in CHO cells (human) (UniProt P16473); experiment: cell-based or functional assay
[11] = biological target: TSHR with Tyr206 mutated to Ala (expressed in CHO cells) (human) (UniProt P16473); experiment: cell-based or functional assay

Inhibition of binding (%) [1]: 20.9%
Substance: 9D33 IgG (antibody)

Mutated/Wild type (%) of cyclic AMP produced, TSH 0.01 ng/mL [2]: 450%
Mutated/Wild type (%) of cyclic AMP produced, TSH 0.03 ng/mL [2]: 328%
Mutated/Wild type (%) of cyclic AMP produced, TSH 0.1 ng/mL [2]: 164%
Mutated/Wild type (%) of cyclic AMP produced, TSH 0.3 ng/mL [2]: 118%
Mutated/Wild type (%) of cyclic AMP produced, TSH 1 ng/mL [2]: 86%
Mutated/wild type (%) of cyclic AMP produced; TSH 3 ng/mL [2]: 115%
Cyclic AMP produced (pmol/mL), TSH 0.01 ng/mL [3]: 4.8 pmol/mL
Cyclic AMP produced (pmol/mL), TSH 0.03 ng/mL [3]: 3.55 pmol/mL
Cyclic AMP produced (pmol/mL), TSH 0.1 ng/mL [3]: 4.82 pmol/mL
Cyclic AMP produced (pmol/mL), TSH 0.3 ng/mL [3]: 11.9 pmol/mL
Cyclic AMP produced (pmol/mL), TSH 1 ng/mL [3]: 34.6 pmol/mL
Cyclic AMP produced (pmol/mL), TSH 3 ng/mL [3]: 58.3 pmol/mL
Mutated/Wild type (%), TSH 0.01 ng/mL [3]: 308%
Mutated/Wild type (%), TSH 0.03 ng/mL [3]: 147%
Mutated/Wild type (%), TSH 0.1 ng/mL [3]: 118%
Mutated/Wild type (%), TSH 0.3 ng/mL [3]: 104%
Mutated/Wild type (%), TSH 1 ng/mL [3]: 76%
Mutated/Wild type (%), TSH 3 ng/mL [3]: 75%
% inhibition of TSH stimulation; TSH (2), run at the end of assay; Experiment 1 [4]: 12%
% inhibition of TSH stimulation; TSH (2), run at the end of assay; Experiment 2 [4]: 13%
Mutated/Wild type (%) of cyclic AMP produced, TSH 0.01 ng/mL [4]: 358%
Mutated/Wild type (%) of cyclic AMP produced, TSH 0.03 ng/mL [4]: 178%
Mutated/Wild type (%) of cyclic AMP produced, TSH 0.1 ng/mL [4]: 201%
Mutated/Wild type (%) of cyclic AMP produced, TSH 0.3 ng/mL [4]: 96%
Mutated/Wild type (%) of cyclic AMP produced, TSH 1 ng/mL [4]: 77%
Mutated/wild type (%) of cyclic AMP produced; TSH 3 ng/mL [4]: 83%
Mutated/wild type (%) of cyclic AMP produced; TSH 3 ng/mL; Experiment 1 [4]: 57%
Mutated/wild type (%) of cyclic AMP produced; TSH 3 ng/mL; Experiment 2 [4]: 81%
Mutated/wild type (%) of cyclic AMP produced; TSH (2) 3 ng/mL, run at the end of assay; Experiment 1 [4]: 54%
Mutated/wild type (%) of cyclic AMP produced; TSH (2) 3 ng/mL, run at the end of assay; Experiment 2 [4]: 69%
Cyclic AMP produced (pmol/mL), mutated TSHR, TSH 0.01 ng/mL [5]: 4.08 pmol/mL
Cyclic AMP produced (pmol/mL), mutated TSHR, TSH 0.03 ng/mL [5]: 7.18 pmol/mL
Cyclic AMP produced (pmol/mL), mutated TSHR, TSH 0.1 ng/mL [5]: 19.1 pmol/mL
Cyclic AMP produced (pmol/mL), mutated TSHR, TSH 0.3 ng/mL [5]: 51.7 pmol/mL
Cyclic AMP produced (pmol/mL), mutated TSHR, TSH 1 ng/mL [5]: 93.3 pmol/mL
Cyclic AMP produced (pmol/mL), mutated TSHR, TSH 3 ng/mL [5]: 106 pmol/mL
Mutated/Wild type (%), TSH 0.01 ng/mL [5]: 165%
Mutated/Wild type (%), TSH 0.03 ng/mL [5]: 155%
Mutated/Wild type (%), TSH 0.1 ng/mL [5]: 109%
Mutated/Wild type (%), TSH 0.3 ng/mL [5]: 128%
Mutated/Wild type (%), TSH 1 ng/mL [5]: 101%
Mutated/Wild type (%), TSH 3 ng/mL [5]: 102%
Cyclic AMP produced, TSH 0.01 ng/mL [6]: 8.29 pmol/mL
Cyclic AMP produced, TSH 0.03 ng/mL [6]: 12.6 pmol/mL
Cyclic AMP produced, TSH 0.1 ng/mL [6]: 28.8 pmol/mL
Cyclic AMP produced, TSH 0.3 ng/mL [6]: 66.2 pmol/mL
Cyclic AMP produced, TSH 1 ng/mL [6]: 87.9 pmol/mL
Cyclic AMP produced; TSH 3 ng/mL [6]: 110 pmol/mL
Mutated/Wild type (%) of cyclic AMP produced, TSH 0.01 ng/mL [6]: 207%
Mutated/Wild type (%) of cyclic AMP produced, TSH 0.03 ng/mL [6]: 189%
Mutated/Wild type (%) of cyclic AMP produced, TSH 0.1 ng/mL [6]: 147%
Mutated/Wild type (%) of cyclic AMP produced, TSH 0.3 ng/mL [6]: 147%
Mutated/Wild type (%) of cyclic AMP produced, TSH 1 ng/mL [6]: 116%
Mutated/wild type (%) of cyclic AMP produced; TSH 3 ng/mL [6]: 126%
Cyclic AMP produced, TSH 0.01 ng/mL, mutated TSHR [7]: 3.05 pmol/mL
Cyclic AMP produced, TSH 0.03 ng/mL, mutated TSHR [7]: 4.12 pmol/mL
Cyclic AMP produced, TSH 0.1 ng/mL, mutated TSHR [7]: 9.61 pmol/mL
Cyclic AMP produced, TSH 0.3 ng/mL, mutated TSHR [7]: 35.6 pmol/mL
Cyclic AMP produced, TSH 1 ng/mL, mutated TSHR [7]: 66.2 pmol/mL
Cyclic AMP produced, TSH 3 ng/mL, mutated TSHR [7]: 80.4 pmol/mL
Mutated/Wild type (%), TSH 0.01 ng/mL [7]: 134%
Mutated/Wild type (%), TSH 0.03 ng/mL [7]: 109%
Mutated/Wild type (%), TSH 0.1 ng/mL [7]: 101%
Mutated/Wild type (%), TSH 0.3 ng/mL [7]: 124%
Mutated/Wild type (%), TSH 1 ng/mL [7]: 86%
Mutated/Wild type (%), TSH 3 ng/mL [7]: 86%
Mutated/Wild type (%) of cyclic AMP produced, TSH 0.01 ng/mL [8]: 90%
Mutated/Wild type (%) of cyclic AMP produced, TSH 0.03 ng/mL [8]: 93%
Mutated/Wild type (%) of cyclic AMP produced, TSH 0.1 ng/mL [8]: 92%
Mutated/Wild type (%) of cyclic AMP produced, TSH 0.3 ng/mL [8]: 105%
Mutated/Wild type (%) of cyclic AMP produced, TSH 1 ng/mL [8]: 94%
Mutated/wild type (%) of cyclic AMP produced; TSH 3 ng/mL [8]: 86%
Cyclic AMP produced, TSH 0.01 ng/mL, Experiment 1 [9]: 1.93 pmol/mL
Cyclic AMP produced, TSH 0.01 ng/mL, Experiment 2 [9]: 1.56 pmol/mL
Cyclic AMP produced, TSH 0.03 ng/mL, Experiment 1 [9]: 2.88 pmol/mL
Cyclic AMP produced, TSH 0.03 ng/mL, Experiment 2 [9]: 2.76 pmol/mL
Cyclic AMP produced, TSH 0.1 ng/mL, Experiment 1 [9]: 7.51 pmol/mL
Cyclic AMP produced, TSH 0.1 ng/mL, Experiment 2 [9]: 7.04 pmol/mL
Cyclic AMP produced, TSH 0.3 ng/mL, Experiment 1 [9]: 22.3 pmol/mL
Cyclic AMP produced, TSH 0.3 ng/mL, Experiment 2 [9]: 17.3 pmol/mL
Cyclic AMP produced, TSH 1 ng/mL, Experiment 1 [9]: 45.7 pmol/mL
Cyclic AMP produced, TSH 1 ng/mL, Experiment 2 [9]: 49.2 pmol/mL
Cyclic AMP produced; TSH 3 ng/mL; Experiment 1 [9]: 54 pmol/mL
Cyclic AMP produced; TSH 3 ng/mL; Experiment 2 [9]: 84.7 pmol/mL
Mutated/Wild type (%) of cyclic AMP produced, TSH 0.01 ng/mL, Experiment 1 [9]: 158%
Mutated/Wild type (%) of cyclic AMP produced, TSH 0.01 ng/mL, Experiment 2 [9]: 77%
Mutated/Wild type (%) of cyclic AMP produced, TSH 0.03 ng/mL, Experiment 1 [9]: 156%
Mutated/Wild type (%) of cyclic AMP produced, TSH 0.03 ng/mL, Experiment 2 [9]: 141%
Mutated/Wild type (%) of cyclic AMP produced, TSH 0.1 ng/mL, Experiment 1 [9]: 154%
Mutated/Wild type (%) of cyclic AMP produced, TSH 0.1 ng/mL, Experiment 2 [9]: 156%
Mutated/Wild type (%) of cyclic AMP produced, TSH 0.3 ng/mL, Experiment 1 [9]: 128%
Mutated/Wild type (%) of cyclic AMP produced, TSH 0.3 ng/mL, Experiment 2 [9]: 128%
Mutated/Wild type (%) of cyclic AMP produced, TSH 1 ng/mL, Experiment 1 [9]: 86%
Mutated/Wild type (%) of cyclic AMP produced, TSH 1 ng/mL, Experiment 2 [9]: 114%
Mutated/wild type (%) of cyclic AMP produced; TSH 3 ng/mL; Experiment 1 [9]: 76%
Mutated/wild type (%) of cyclic AMP produced; TSH 3 ng/mL; Experiment 2 [9]: 100%
Cyclic AMP produced (pmol/mL), mutated TSHR, TSH 0.01 ng/mL, Experiment 1 [10]: 3.33 pmol/mL
Cyclic AMP produced (pmol/mL), mutated TSHR, TSH 0.01 ng/mL, Experiment 2 [10]: 3.82 pmol/mL
Cyclic AMP produced (pmol/mL), mutated TSHR, TSH 0.03 ng/mL, Experiment 1 [10]: 3.85 pmol/mL
Cyclic AMP produced (pmol/mL), mutated TSHR, TSH 0.03 ng/mL, Experiment 2 [10]: 5.6 pmol/mL
Cyclic AMP produced (pmol/mL), mutated TSHR, TSH 0.1 ng/mL, Experiment 1 [10]: 8.36 pmol/mL
Cyclic AMP produced (pmol/mL), mutated TSHR, TSH 0.1 ng/mL, Experiment 2 [10]: 12.3 pmol/mL
Cyclic AMP produced (pmol/mL), mutated TSHR, TSH 0.3 ng/mL, Experiment 1 [10]: 21.1 pmol/mL
Cyclic AMP produced (pmol/mL), mutated TSHR, TSH 0.3 ng/mL, Experiment 2 [10]: 30.5 pmol/mL
Cyclic AMP produced (pmol/mL), mutated TSHR, TSH 1 ng/mL, Experiment 1 [10]: 37.8 pmol/mL
Cyclic AMP produced (pmol/mL), mutated TSHR, TSH 1 ng/mL, Experiment 2 [10]: 50.6 pmol/mL
Cyclic AMP produced (pmol/mL), mutated TSHR, TSH 3 ng/mL, Experiment 1 [10]: 42.9 pmol/mL
Cyclic AMP produced (pmol/mL), mutated TSHR, TSH 3 ng/mL, Experiment 2 [10]: 56.3 pmol/mL
Mutated/Wild type (%), TSH 0.01 ng/mL, Experiment 1 [10]: 128%
Mutated/Wild type (%), TSH 0.01 ng/mL, Experiment 2 [10]: 98%
Mutated/Wild type (%), TSH 0.03 ng/mL, Experiment 1 [10]: 90%
Mutated/Wild type (%), TSH 0.03 ng/mL, Experiment 2 [10]: 101%
Mutated/Wild type (%), TSH 0.1 ng/mL, Experiment 1 [10]: 76%
Mutated/Wild type (%), TSH 0.1 ng/mL, Experiment 2 [10]: 93%
Mutated/Wild type (%), TSH 0.3 ng/mL, Experiment 1 [10]: 65%
Mutated/Wild type (%), TSH 0.3 ng/mL, Experiment 2 [10]: 86%
Mutated/Wild type (%), TSH 1 ng/mL, Experiment 1 [10]: 45%
Mutated/Wild type (%), TSH 1 ng/mL, Experiment 2 [10]: 62%
Mutated/Wild type (%), TSH 3 ng/mL, Experiment 1 [10]: 35%
Mutated/Wild type (%) of cyclic AMP produced, TSH 0.01 ng/mL, Experiment 1 [11]: 83%
Mutated/Wild type (%) of cyclic AMP produced, TSH 0.01 ng/mL, Experiment 2 [11]: 135%
Mutated/Wild type (%) of cyclic AMP produced, TSH 0.03 ng/mL, Experiment 1 [11]: 124%
Mutated/Wild type (%) of cyclic AMP produced, TSH 0.03 ng/mL, Experiment 2 [11]: 144%
Mutated/Wild type (%) of cyclic AMP produced, TSH 0.1 ng/mL, Experiment 1 [11]: 93%
Mutated/Wild type (%) of cyclic AMP produced, TSH 0.1 ng/mL, Experiment 2 [11]: 178%
Mutated/Wild type (%) of cyclic AMP produced, TSH 0.3 ng/mL, Experiment 1 [11]: 104%
Mutated/Wild type (%) of cyclic AMP produced, TSH 0.3 ng/mL, Experiment 2 [11]: 110%
Mutated/Wild type (%) of cyclic AMP produced, TSH 1 ng/mL, Experiment 1 [11]: 66%
Mutated/Wild type (%) of cyclic AMP produced, TSH 1 ng/mL, Experiment 2 [11]: 93%
Mutated/wild type (%) of cyclic AMP produced; TSH 3 ng/mL; Experiment 1 [11]: 62%
Mutated/wild type (%) of cyclic AMP produced; TSH 3 ng/mL; Experiment 2 [11]: 97%
Substance: TSH (ligand)

Source: patent US20110300138A1 (published 2011)
